# Assays:
# [1] = tested on: LPS mediated TNFα stimulation; assay: Rat in vivo LPS model; parameters: species or system Lewis rats; conditions: i.v., challenged with LPS, FIG. 41
# [2] = tested on: LPS mediated TNFα stimulation of rat macrophages / spleen cells; assay: Rat in vitro LPS model; format: cell-based; conditions: FIG. 41
# Description: Rat or mouse peritoneal or spleen cell suspensions were prepared from female Lewis rats (Harlan) or BalB/cA mice (Taconic). Human mononuclear cells were isolated from buffycoats (Skejby University Hospital) as described above. The purified cells were suspended in RPMI medium supplemented with 10% FCS and 2 mM L-glutamine and cultured (2×10^5 per well) overnight in 96-well flat bottomed plates (125 μl per well) at 37° C. and 5% CO2. Glucocorticoid conjugates (Example 8), free glucocorticoids or PBS were serial diluted in supplemented RPMI medium and added (100 μl) to the overnight cell cultures at final concentrations ranging from 1-10^−7 μg glucocorticoid/ml. After incubation for a specific time ranging from 30 min-24 hours, 150 μl supernatant was carefully aspirated and 150 μl supplemented RPMI medium added to the wells before further incubation overnight. Each incubation condition was tested in duplicates or triplicates. After 16-20 hours, the cells were challenged with lipopolysaccharide (LPS) (250 ng/ml) for 4 hours before supernatant was aspirated from each well and frozen at -20° C.
# [3] = molecular target: T1, CHO cells expressing CD163 (Homo sapiens, UniProt Q86VB7); assay: CD163 antibody binding and uptake in CHO cells expressing CD163 (confocal microscopy); format: cell-based; conditions: 0 or 30 minutes, FIG. 7
# T1 construct: Stably transfected Chinese hamster ovary (CHO) cells expressing the full-length human CD163; expressed in transfected cells
# T1 sequence (Q86VB7 42-1156): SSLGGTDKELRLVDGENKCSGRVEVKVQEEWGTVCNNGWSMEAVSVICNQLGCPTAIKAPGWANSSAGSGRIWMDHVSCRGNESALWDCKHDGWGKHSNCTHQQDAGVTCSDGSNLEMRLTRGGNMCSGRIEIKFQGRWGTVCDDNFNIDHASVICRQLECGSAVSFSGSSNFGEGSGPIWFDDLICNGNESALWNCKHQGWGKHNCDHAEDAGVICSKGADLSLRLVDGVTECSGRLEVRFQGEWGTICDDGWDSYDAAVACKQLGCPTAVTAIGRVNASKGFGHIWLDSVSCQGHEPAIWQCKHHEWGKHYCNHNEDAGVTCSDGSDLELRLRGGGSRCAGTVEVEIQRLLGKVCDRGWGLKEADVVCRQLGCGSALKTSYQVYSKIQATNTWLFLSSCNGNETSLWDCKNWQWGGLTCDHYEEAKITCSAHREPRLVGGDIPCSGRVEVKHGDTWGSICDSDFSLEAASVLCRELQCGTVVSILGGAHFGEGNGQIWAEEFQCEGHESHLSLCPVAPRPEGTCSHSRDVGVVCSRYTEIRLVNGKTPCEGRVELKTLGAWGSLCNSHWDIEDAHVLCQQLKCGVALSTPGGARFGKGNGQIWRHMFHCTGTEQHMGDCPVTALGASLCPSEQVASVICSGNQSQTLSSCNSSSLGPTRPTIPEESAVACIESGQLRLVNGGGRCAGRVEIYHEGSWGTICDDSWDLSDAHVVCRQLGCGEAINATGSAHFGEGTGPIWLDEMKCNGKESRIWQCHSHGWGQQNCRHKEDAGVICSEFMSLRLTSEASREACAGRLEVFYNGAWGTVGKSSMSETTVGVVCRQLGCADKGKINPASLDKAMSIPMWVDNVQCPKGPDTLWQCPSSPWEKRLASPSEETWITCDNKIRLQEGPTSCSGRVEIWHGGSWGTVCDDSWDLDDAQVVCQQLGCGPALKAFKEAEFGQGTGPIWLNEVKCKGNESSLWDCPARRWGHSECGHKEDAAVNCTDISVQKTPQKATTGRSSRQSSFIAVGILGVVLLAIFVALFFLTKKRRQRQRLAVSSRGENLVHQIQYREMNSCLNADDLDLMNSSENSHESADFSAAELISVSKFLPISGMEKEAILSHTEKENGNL
# Description: Monocytes were isolated from PBMC by negative selection using magnetic beads from Dynal (Dynabeads® MyPure™ Monocyte Kit 2; Invitrogen A/S, Taastrup, Denmark) according to instructions provided by the manufacturer. Monocyte preparations were more than 95% (CD14^+) pure determined by flow cytometry. The isolated cells were washed twice with phosphate-buffered saline. Monocyte-derived macrophages (MDMs) were prepared by cell culture of monocytes (approximately 1×10^7 cells) for 4 days in 5% CO2 and 37° C. in RPMI 1640 media (RPMI 1640+25 mM HEPES+I-glutamine) (Invitrogen Corporation, Carlsbad, Calif., USA) with 20% FCS containing 100 ng/ml of M-CSF. MDMs were then detached from the flask by incubation with cell dissociation buffer (Invitrogen A/S, Taastrup, Denmark) for 30 minutes at 4 °C, then flushed, and scraped. […]
# MDMs or CHO cells were washed with 4° C. cold D-PBS, pH 7.4, containing 1% BSA in Lab-Tek™ Chamber Slides (Thermo Fisher Scientific, Roskilde, Denmark). […] Fluorescence was visualized using a Zeiss Axiovert 200M microscope (Carl Zeiss GmbH, Jena, Germany) with an ×100 oil-immersion objective. […] Alternatively, immunostained cells were analyzed by confocal immunofluorescence microscopy using a Zeiss LSM-510 confocal microscope (Carl Zeiss GmbH, Jena, Germany). […]
# [4] = molecular target: T2, CD163 transfected Flp-In CHO cells (Homo sapiens, UniProt Q86VB7); assay: Cellular binding and uptake (endocytosis) of 125I-labeled anti-CD163; format: cell-based
# T2 construct: Stably transfected Chinese hamster ovary (CHO) cells expressing the full-length human CD163; expressed in transfected cells
# T2 sequence (Q86VB7 42-1156): as above
# Description: Monocytes were isolated from PBMC by negative selection using magnetic beads from Dynal (Dynabeads® MyPure™ Monocyte Kit 2; Invitrogen A/S, Taastrup, Denmark) according to instructions provided by the manufacturer. Monocyte preparations were more than 95% (CD14^+) pure determined by flow cytometry. The isolated cells were washed twice with phosphate-buffered saline. Monocyte-derived macrophages (MDMs) were prepared by cell culture of monocytes (approximately 1×10^7 cells) for 4 days in 5% CO2 and 37° C. in RPMI 1640 media (RPMI 1640+25 mM HEPES+I-glutamine) (Invitrogen Corporation, Carlsbad, Calif., USA) with 20% FCS containing 100 ng/ml of M-CSF. MDMs were then detached from the flask by incubation with cell dissociation buffer (Invitrogen A/S, Taastrup, Denmark) for 30 minutes at 4 °C, then flushed, and scraped. The cells were then cultured for 24 hours in RPMI 1640 media (RPMI 1640+25 mM HEPES+I-glutamine) (Invitrogen Corporation, Carlsbad, Calif., USA) supplemented with 20% FCS containing 100 ng/ml of M-CSF at 37° C. in 95% air and 5% CO2 in Lab-Tek™ Chamber Slides (Thermo Fisher Scientific, Roskilde, Denmark). 200 nM dexamethasone (Merck KGaA, Darmstadt, Germany) was added during culture to increase CD163 expression. Stably transfected Chinese hamster ovary (CHO) cells expressing the full-length human CD163, as described above, were cultured in serum-free CHO medium (HyQ-CCM, HyClone, Logan, Utah) containing 300 μg/ml Hygromycin B, as previously described (2).
# Endocytosis of ^125I-labeled anti-CD163 was investigated in CD163 transfected Flp-In Chinese hamster ovary (CHO) cells and mock-transfected Flp-In as described (Madsen, M., Moller, H. J., Nielsen, M. J., Jacobsen, C., Graversen, J. H., van den Berg, T. and Moestrup, S. K. (2004) Molecular characterization of the haptoglobin.hemoglobin receptor CD163. Ligand binding properties of the scavenger receptor cysteine-rich domain region. J. Biol. Chem., 279, 51561-51567.)
# CD163 [5] = molecular target: T3, CD163 (Homo sapiens, UniProt Q86VB7); assay: Competition of binding to Mac2-158 epitope (SPR on Mac2-158 saturated CD163 chip); conditions: 2 mM free calcium buffer, mAb 5 μg/ml
# T3 sequence (Q86VB7 42-1156): as above
# Description: To evaluate if there is competition in the binding of a range of mAbs to CD163 we first saturated the CD163-chip with Mac2-158 by injecting 50 μL of 50 μg/ml Mac2-158 and subsequently injecting relevant mAbs in 5 μg/ml. The binding buffer was CaHBS 10 mM Hepes, 150 mM NaCl, 3.0 mM CaCl2, 1.0 mM EGTA, and 0.005% Tween 20, pH 7.4.
# CD163 [6] = molecular target: T3, CD163; assay: Surface plasmon resonance (Biacore) analysis of mAb binding to immobilized CD163; conditions: in both 2 mM free Ca2+ and 10 mM EDTA
# Description: (§1) SPR analysis of the binding of mAbs to CD163 was carried out on a Biacore 2000 instrument (Biacore, Uppsala, Sweden). The Biacore sensor chips (type CM5) were activated with a 1:1 mixture of 0.2 M N-ethyl-N′-(3-dimethylaminopropyl) carbodiimide and 0.05 M N-hydroxysuccimide in water. Purified recombinant CD163 were immobilized in 10 mM sodium acetate, pH 4.0, and the remaining binding sites were blocked with 1 M ethanolamine, pH 8.5. The SPR signal generated from immobilized recombinant CD163 proteins corresponded to 40-70 fmol of protein/mm^2. Sensorgrams were generated using mAb concentrations ranging from 5-100 nM. The flow cells were regenerated with 1.6 M glycine-HCl, pH 3. The running buffer used for the experiment was either CaHBS 10 mM Hepes, 150 mM NaCl, 3.0 mM CaCl2, 1.0 mM EGTA, and 0.005% Tween 20, […], and 0.005% Tween 20, pH 7.4, mAb samples were dissolved in the same buffer as the running buffer used. All binding data were analyzed using the Biamolecular Interaction Analysis evaluation program version 3.1.
# as §1, with “7.4, KN2/NRY and Mac-158” for “7.4, mAb”, “buffer used at a concentration of 5 μg/ml.” for “buffer used.”
# CD163 [7] = molecular target: T3, CD163; assay: scFv ELISA; format: binding; conditions: for ELISA signal: PBS, read at 450 nm
# Description: A nunc Maxisorp ELISA plate (NUNC, Roskilde, Denmark) was coated with 50 μl/well of 2 μg/ml of CD163 (purified as described in (2)) over night at 4° C. The coated plate was washed 3 times in PBS and blocked for 1 hour with 3% BSA in PBS. Fractions from scFv purification were tested by adding 100 μl/well of a 1:10 dilution of each sample in 1% BSA, PBS. The refolded protein sample was added directly to the wells (100 μl/well) and two-fold dilution series was made with dilution in 1% BSA in PBS. After 1 hour incubation at 4° C. the plate was washed 3 times in PBS again. Secondary detection was made with a 1 hour incubation of a HRP conjugated anti-His antibody (Sigma-Aldrich, Brøndby, Denmark) (1:4000 diluted in 1% BSA, PBS). After washing 3 times in PBS the ELISA was developed with […] TMB substrate (Invitrogen, Taastrup, Denmark). The reaction was stopped with 40 μl/well of 1 M H2SO4 and the plate was read in an ELISA reader at 450 nm.
molecule,measurement,setting,value
C[C@]12C=CC(=O)C=C1CC[C@@H]1[C@@H]2[C@@H](O)C[C@@]2(C)[C@H]1CC[C@]2(O)C(=O)CO [prednisolone],TNFα level lower compared to vehicle,[1],5 times
"CC1(C)O[C@@H]2C[C@H]3[C@@H]4C[C@H](F)C5=CC(=O)C=C[C@]5(C)[C@@]4(F)[C@@H](O)C[C@]3(C)[C@]2(C(=O)CO)O1 [fluocinolone-acetoniode, Fluocinolone acetonide]",TNFα level lower compared to vehicle,[1],5 times
same,suppressive in vitro effect compared to prednisolone,[2],significantly higher
"Mac2-48: anti-human CD163 murine mAb, IQ Products; VH SEQ ID NO: 3, VL SEQ ID NO: 4 (antibody, V domains shown, Mac2-48 VH; Mac2-48 VL) VH: DVQLQESGPGLVKPSQSLSLTCTVTGYSITSDYAWNWIRQFPGNKLEWMGFISYSGITSYNPSLKSRISITRDTSKNQFFLQLNSVTTEDSATYYCVSGTYYFDYWGQGTTLTVSS VL: SIVMTQTPKFLLVSAGDRVTITCKASQSVSHDVSWFQQKPGQSPKLLIYYTSNRYTGVPDRFTGSGYGTDFTFTISTVQAEDLAIYFCQQDYSSPRTFGGGTKLEIKRA",binding and uptake,[3],best binding and uptake
same,time course of cell-associated radioactivity (bound or internalized),"[4]; 125I-labelled mAb, increasing time points",did not reach a plateau
same,cellular uptake and binding to CD163-expressing cells,"[4]; compared with the other tested antibodies, FIG. 5",considerably higher
same,binding to CD163-Fc saturated with Mac2-158,CD163 [5],not able to bind
same,affinities for CD163,CD163 [6],nanomolar or sub-nanomolar range
"refolded scFv: scFv (VH-15 residue linker-VL), SEQ ID NO: 56, expressed in E. coli and refolded (protein, scFv sequence) scFv: MDQVQLQESGPGLVKPSETLSLTCTVSGYSITSDYAWNWIRQFPGNKLEWMGYITYSGSTYYNPSLKSRVTISVDTSKNQFSLKLSSVTAADTATYYCVSGTYYFDYWGQGTTLTVSSGGGGSGGGGSGGGGSDIVMTQSPSSLSASVGDRVTITCRASQSVSSDVAWFQQKPGKSPKPLIYYASNRYSGVPSRFSGSGSGTDFTLTISSLQAEDFAVYFCGQDYTSPRTFGGGTKLEIKREQKLISEEDL",dilution down to which binding signals to CD163 were detected,CD163 [7]; 2 fold dilution series,128 fold
same,ELISA signal,CD163 [7]; 64 fold dilution in 1% BSA,0.29
same,ELISA signal,CD163 [7]; 128 fold dilution in 1% BSA,0.15
